From the supplement of paper PMC11246515
± gives the standard deviation of the averaged measurements.

Experiment: total protein half-life in vivo (active degradation + dilution); higher = more stable protein
[1] = wild type E. coli NCM3722, growth: C-lim chemostat, doubling time 6 h
[2] = wild type E. coli NCM3722, growth: P-lim chemostat, doubling time 6 h
[3] = wild type E. coli NCM3722, growth: P-lim chemostat, doubling time 12 h
[4] = E. coli NCM3722 delta-clpP delta-lon delta-hslV, growth: N-lim chemostat, doubling time 6 h
[5] = E. coli NCM3722 delta-clpP, growth: N-lim chemostat, doubling time 6 h
[6] = E. coli NCM3722 delta-hslV, growth: N-lim chemostat, doubling time 6 h
[7] = E. coli NCM3722 delta-lon, growth: N-lim chemostat, doubling time 6 h
[8] = E. coli NCM3722 delta-smpB, growth: N-lim chemostat, doubling time 6 h
[9] = wild type E. coli NCM3722, growth: C-lim chemostat, doubling time 3 h
[10] = wild type E. coli NCM3722, growth: C-lim chemostat, doubling time 12 h
[11] = wild type E. coli NCM3722, growth: N-lim chemostat, doubling time 6 h
[12] = wild type E. coli NCM3722, growth: N-lim chemostat, doubling time 12 h

Row | Sequence | total protein half-life in vivo [1] | total protein half-life in vivo [2] | total protein half-life in vivo [3] | total protein half-life in vivo [4] | total protein half-life in vivo [5] | total protein half-life in vivo [6] | total protein half-life in vivo [7] | total protein half-life in vivo [8] | total protein half-life in vivo [9] | total protein half-life in vivo [10] | total protein half-life in vivo [11] | total protein half-life in vivo [12]
1 | MNQPLLSVNNLTHLYAPGKGFSDVSFDLWPGEVLGIVGESGSGKTTLLKSISARLTPQQGEIHYENRSLYAMSEADRRRLLRTEWGVVHQHPLDGLRRQVSAGGNIGERLMATGARHYGDIRATAQKWLEEVEIPANRIDDLPTTFSGGMQQRLQIARNLVTHPKLVFMDEPTGGLDVSVQARLLDLLRGLVVELNLAVVIVTHDLGVARLLADRLLVMKQGQVVESGLTDRVLDDPHHPYTQLLVSSVLQN | 4.8 h | 0.314 h | 1.09 ± 0.26 h | – | – | – | – | – | – | – | – | –
2 | MSQHNEKNPHQHQSPLHDSSEAKPGMDSLAPEDGSHRPAAEPTPPGAQPTAPGSLKAPDTRNEKLNSLEDVRKGSENYALTTNQGVRIADDQNSLRAGSRGPTLLEDFILREKITHFDHERIPERIVHARGSAAHGYFQPYKSLSDITKADFLSDPNKITPVFVRFSTVQGGAGSADTVRDIRGFATKFYTEEGIFDLVGNNTPIFFIQDAHKFPDFVHAVKPEPHWAIPQGQSAHDTFWDYVSLQPETLHNVMWAMSDRGIPRSYRTMEGFGIHTFRLINAEGKATFVRFHWKPLAGKASLVWDEAQKLTGRDPDFHRRELWEAIEAGDFPEYELGFQLIPEEDEFKFDFDLLDPTKLIPEELVPVQRVGKMVLNRNPDNFFAENEQAAFHPGHIVPGLDFTNDPLLQGRLFSYTDTQISRLGGPNFHEIPINRPTCPYHNFQRDGMHRMGIDTNPANYEPNSINDNWPRETPPGPKRGGFESYQERVEGNKVRERSPSFGEYYSHPRLFWLSQTPFEQRHIVDGFSFELSKVVRPYIRERVVDQLAHIDLTLAQAVAKNLGIELTDDQLNITPPPDVNGLKKDPSLSLYAIPDGDVKGRVVAILLNDEVRSADLLAILKALKAKGVHAKLLYSRMGEVTADDGTVLPIAATFAGAPSLTVDAVIVPCGNIADIADNGDANYYLMEAYKHLKPIALAGDARKFKATIKIADQGEEGIVEADSADGSFMDELLTLMAAHRVWSRIPKIDKIPA | 5.76 ± 0.23 h | 5.88 ± 0.41 h | 11.9 ± 0.53 h | 6.34 ± 0.49 h | 6.14 ± 0.56 h | 5.76 ± 0.4 h | 5.78 ± 0.094 h | 5.28 ± 0.077 h | 2.79 ± 0.4 h | 10.8 ± 0.26 h | 5.81 ± 0.24 h | 12.3 ± 1.9 h
3 | MATPYISMAGIGKSFGPVHALKSVNLTVYPGEIHALLGENGAGKSTLMKVLSGIHEPTKGTITINNISYNKLDHKLAAQLGIGIIYQELSVIDELTVLENLYIGRHLTKKICGVNIIDWREMRVRAAMMLLRVGLKVDLDEKVANLSISHKQMLEIAKTLMLDAKVIIMDEPTSSLTNKEVDYLFLIMNQLRKEGTAIVYISHKLAEIRRICDRYTVMKDGSSVCSGIVSDVSNDDIVRLMVGRELQNRFNAMKENVSNLAHETVFEVRNVTSRDRKKVRDISFSVCRGEILGFAGLVGSGRTELMNCLFGVDKRAGGEIRLNGKDISPRSPLDAVKKGMAYITESRRDNGFFPNFSIAQNMAISRSLKDGGYKGAMGLFHEVDEQRTAENQRELLALKCHSVNQNITELSGGNQQKVLISKWLCCCPEVIIFDEPTRGIDVGAKAEIYKVMRQLADDGKVILMVSSELPEIITVCDRIAVFCEGRLTQILTNRDDMSEEEIMAWALPQE | 5.265 ± 0.0056 h | – | 10.6 h | – | – | – | – | > 8 h | 2.84 ± 0.095 h | – | 6.14 h | –
4 | MNIDTREITLEPADNARLLSLCGPFDDNIKQLERRLGIEINRRDNHFKLTGRPICVTAAADILRSLYVDTAPMRGQIQDIEPEQIHLAIKEARVLEQSAESVPEYGKAVNIKTKRGVIKPRTPNQAQYIANILDHDITFGVGPAGTGKTYLAVAAAVDALERQEIRRILLTRPAVEAGEKLGFLPGDLSQKVDPYLRPLYDALFEMLGFEKVEKLIERNVIEVAPLAYMRGRTLNDAFIILDESQNTTIEQMKMFLTRIGFNSKAVITGDVTQIDLPRNTKSGLRHAIEVLADVEEISFNFFHSEDVVRHPVVARIVNAYEAWEEAEQKRKAALAAERKREEQEQK [P0A9K3] | 4.809 ± 0.025 h | 4.37 ± 0.17 h | 7.78 ± 0.12 h | 5.2 ± 0.69 h | 4.25 ± 0.14 h | 2.95 ± 0.066 h | 4.1 ± 0.2 h | 3.167 ± 0.017 h | 2.77 ± 0.3 h | 7.67 ± 0.34 h | 3.15 ± 0.17 h | 4.373 ± 0.043 h
5 | MNNHFGKGLMAGLKATHADSAVNVTKFCADYKRGFVLGYSHRMYEKTGDRQLSAWEAGILTRRYGLDKEMVMDFFRENNSCSTLRFFMAGYRLEN | – | – | – | 4.99 ± 0.16 h | – | – | – | – | – | – | – | –
6 | MANFFIDRPIFAWVLAILLCLTGTLAIFSLPVEQYPDLAPPNVRVTANYPGASAQTLENTVTQVIEQNMTGLDNLMYMSSQSSGTGQASVTLSFKAGTDPDEAVQQVQNQLQSAMRKLPQAVQNQGVTVRKTGDTNILTIAFVSTDGSMDKQDIADYVASNIQDPLSRVNGVGDIDAYGSQYSMRIWLDPAKLNSFQMTAKDVTDAIESQNAQIAVGQLGGTPSVDKQALNATINAQSLLQTPEQFRDITLRVNQDGSEVRLGDVATVEMGAEKYDYLSRFNGKPASGLGVKLASGANEMATAELVLNRLDELAQYFPHGLEYKVAYETTSFVKASIEDVVKTLLEAIALVFLVMYLFLQNFRATLIPTIAVPVVLMGTFSVLYAFGYSVNTLTMFAMVLAIGLLVDDAIVVVENVERIMSEEGLTPREATRKSMGQIQGALVGIAMVLSAVFVPMAFFGGTTGAIYRQFSITIVAAMVLSVLVAMILTPALCATLLKPLKKGEHHGQKGFFAWFNQMFNRNAERYEKGVAKILHRSLRWIVIYVLLLGGMVFLFLRLPTSFLPLEDRGMFTTSVQLPSGSTQQQTLKVVEQIEKYYFTHEKDNIMSVFATVGSGPGGNGQNVARMFIRLKDWSERDSKTGTSFAIIERATKAFNQIKEARVIASSPPAISGLGSSAGFDMELQDHAGAGHDALMAARNQLLALAAENPELTRVRHNGLDDSPQLQIDIDQRKAQALGVAIDDINDTLQTAWGSSYVNDFMDRGRVKKVYVQAAAPYRMLPDDINLWYVRNKDGGMVPFSAFATSRWETGSPRLERYNGYSAVEIVGEAAPGVSTGTAMDIMESLVKQLPNGFGLEWTAMSYQERLSGAQAPALYAISLLVVFLCLAALYESWSVPFSVMLVVPLGVIGALLATWMRGLENDVYFQVGLLTVIGLSAKNAILIVEFANEMNQKGHDLFEATLHACRQRLRPILMTSLAFIFGVLPMATSTGAGSGGQHAVGTGVMGGMISATILAIYFVPLFFVLVRRRFPLKPRPE | – | 6.36 ± 0.17 h | – | – | 6.56 ± 0.62 h | 6.24 ± 0.45 h | 6.05 ± 0.57 h | 5.38 ± 0.37 h | – | 12 ± 2.9 h | 6.06 ± 0.82 h | 12.3 ± 0.86 h
7 | MKLTDADNAADGIFFPALEQNMMGAVLINENDEVMFFNPAAEKLWGYKREEVIGNNIDMLIPRDLRPAHPEYIRHNREGGKARVEGMSRELQLEKKDGSKIWTRFALSKVSAEGKVYYLALVRDASVEMAQKEQTRQLIIAVDHLDRPVIVLDPERHIVQCNRAFTEMFGYCISEASGMQPDTLLNIPEFPADNRIRLQQLLWKTARDQDEFLLLTRTGEKIWIKASISPVYDVLAHLQNLVMTFSDITEERQIRQLEGNILAAMCSSPPFHEMGEIICRNIESVLNESHVSLFALRNGMPIHWASSSHGAEIQNAQSWSATIRQRDGAPAGILQIKTSSGAETSAFIERVADISQHMAALALEQEKSRQHIEQLIQFDPMTGLPNRNNLHNYLDDLVDKAVSPVVYLIGVDHIQDVIDSLGYAWADQALLEVVNRFREKLKPDQYLCRIEGTQFVLVSLENDVSNITQIADELRNVVSKPIMIDDKPFPLTLSIGISYDLGKNRDYLLSTAHNAMDYIRKNGGNGWQFFSPAMNEMVKERLVLGAALKEAISNNQLKLVYQPQIFAETGELYGIEALARWHDPLHGHVPPSRFIPLAEEIGEIENIGRWVIAEACRQLAEWRSQNIHIPALSVNLSALHFRSNQLPNQVSDAMHAWGIDGHQLTVEITESMMMEHDTEIFKRIQILRDMGVGLSVDDFGTGFSGLSRLVSLPVTEIKIDKSFVDRCLTEKRILALLEAITSIGQSLNLTVVAEGVETKEQFEMLRKIHCRVIQGYFFSRPLPAEEIPGWMSSVLPLKI | 4.27 ± 0.69 h | 2.56 ± 0.83 h | 4.93 ± 0.014 h | 5.66 ± 0.45 h | 3.42 ± 0.28 h | 4.21 ± 0.49 h | 3.8 ± 0.26 h | 3.55 ± 0.9 h | 1.63 ± 0.42 h | 6.85 ± 0.2 h | 4.01 ± 0.26 h | 7.043 ± 0.059 h
8 | MSAFTPASEVLLRHSDDFEQSRILFAGDLQDDLPARLDTAASRAHTQQFHHWQVLSRQMGDNARFSLVATADDVADCDTLIYYWPKNKPEAQFQLMNLLSLLPVGTDIFVVGENRSGVRSAEQMLADYAPLNKVDSARRCGLYFGRLEKQPVFDAEKFWGEYSVDGLTVKTLPGVFSRDGLDVGSQLLLSTLTPHTKGKVLDVGCGAGVLSVAFARHSPKIRLTLCDVSAPAVEASRATLAANGVEGEVFASNVFSEVKGRFDMIISNPPFHDGMQTSLDAAQTLIRGAVRHLNSGGELRIVANAFLPYPDVLDETFGFHEVIAQTGRFKVYRAIMTRQAKKG | 6.41 ± 0.39 h | 6 ± 0.36 h | 12.9 ± 0.31 h | 6.65 ± 1.3 h | 5.678 ± 0.047 h | 6.2 ± 0.67 h | 6.21 ± 0.59 h | 5.56 ± 0.52 h | 2.93 ± 0.21 h | 11.6 ± 0.39 h | 5.68 ± 0.71 h | 11.1 ± 1.8 h
